Data from article PMC3575576.

Target: E47 (mouse (endogenous in palatal shelves)) (UniProt P15806)
Sequence of UniProt P15806 (P15806 whole entry): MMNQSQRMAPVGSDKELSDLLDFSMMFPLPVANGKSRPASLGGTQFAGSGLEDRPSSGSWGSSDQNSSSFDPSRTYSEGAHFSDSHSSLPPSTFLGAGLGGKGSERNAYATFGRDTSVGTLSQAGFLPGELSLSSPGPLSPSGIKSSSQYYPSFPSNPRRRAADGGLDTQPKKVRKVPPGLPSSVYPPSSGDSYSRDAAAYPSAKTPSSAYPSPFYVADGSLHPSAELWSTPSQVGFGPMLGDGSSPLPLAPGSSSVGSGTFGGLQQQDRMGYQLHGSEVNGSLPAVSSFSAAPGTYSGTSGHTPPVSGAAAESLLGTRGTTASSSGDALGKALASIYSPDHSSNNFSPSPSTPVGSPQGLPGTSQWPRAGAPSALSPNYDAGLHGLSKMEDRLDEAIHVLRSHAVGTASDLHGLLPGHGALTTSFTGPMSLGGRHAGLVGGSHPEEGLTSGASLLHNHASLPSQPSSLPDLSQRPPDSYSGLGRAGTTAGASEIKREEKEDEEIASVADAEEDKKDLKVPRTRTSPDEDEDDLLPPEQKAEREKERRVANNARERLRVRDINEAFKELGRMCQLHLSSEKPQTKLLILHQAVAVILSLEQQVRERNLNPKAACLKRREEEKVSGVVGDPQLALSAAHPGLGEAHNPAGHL

- luciferase activity of the Snail1 promoter (1.7KSnLuc) in MDCK cells transfected with forced Twist1/E47 (T/E) heterodimers, compared with cells transfected with Twist1 alone: 2 fold
B1: Twist1 (natural protein)
chain: MMQDVSSSPVSPADDSLSNSEEEPDRQQPASGKRGARKRRSSRRSAGGSAGPGGATGGGIGGGDEPGSPAQGKRGKKSAGGGGGGGAGGGGGGGGGSSSGGGSPQSYEELQTQRVMANVRERQRTQSLNEAFAALRKIIPTLPSDKLSKIQTLKLAARYIDFLYQVLQSDELDSKMASCSYVAHERLSYAFSVWRMEGAWSMSASH
